Here are results for two molecules from US20210253716A1.

Experiment [1] concerns the target mouse ACVR1 extracellular domain expressed with a C-terminal myc-myc-hexahistidine tag (mouse). The experiment is described as follows: SPR (Biacore), mAb captured, 37 C.
Experiment [2] has the same target. The experiment is described as follows: SPR (Biacore), mAb captured, 25 C.
Experiment [3] deals with human ACVR1 extracellular domain expressed with a C-terminal mouse IgG2a Fc tag (human). The experiment is described as follows: SPR (Biacore), mAb captured, 37 C.
The target is the same in experiment [4]. Put plainly: SPR (Biacore), mAb captured, 25 C.

human ACVR1 extracellular domain expressed with a C-terminal mouse IgG2a Fc tag (human), sequence (chain, as listed by the source limits assumed): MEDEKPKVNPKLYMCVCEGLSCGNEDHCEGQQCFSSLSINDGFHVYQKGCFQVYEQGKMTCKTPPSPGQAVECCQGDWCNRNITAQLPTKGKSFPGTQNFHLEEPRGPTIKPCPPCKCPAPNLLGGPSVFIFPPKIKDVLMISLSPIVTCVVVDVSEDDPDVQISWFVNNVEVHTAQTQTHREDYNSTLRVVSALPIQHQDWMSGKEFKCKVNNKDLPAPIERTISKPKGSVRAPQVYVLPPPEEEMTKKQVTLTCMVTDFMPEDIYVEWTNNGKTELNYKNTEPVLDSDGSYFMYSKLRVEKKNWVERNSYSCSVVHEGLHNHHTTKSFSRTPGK
mouse ACVR1 extracellular domain expressed with a C-terminal myc-myc-hexahistidine tag (mouse), sequence (chain, as listed by the source limits assumed): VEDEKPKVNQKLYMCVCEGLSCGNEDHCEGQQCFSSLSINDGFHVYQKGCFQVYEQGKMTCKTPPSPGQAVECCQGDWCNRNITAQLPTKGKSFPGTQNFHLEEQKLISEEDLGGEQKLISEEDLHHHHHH

B1: mAb29266 (antibody, human IgG4 S228P, kappa, V domains shown)
VH: QVQLVESGGGVVQPGRSLRLSCEVSGFTFSNYGMHWVRQAPGKGLEWVAVVSYDGSNKYYTDSVKGRFTISRDNSKNTLSLQMNSLRAEDTAVYYCAKDRGITGTSGGVFDIWGQGTMVTVSS
VL: AIRMTQSPSSFSATTGDRVTITCRASQGISSHLAWYQQKPGKAPKFLIYVASTLQSGVPSRFSGSGSGTDFTLTISSLQSEDFATYYCQQYYSYPPTFGQGTKVEIKR
As to B1, the 900 nM or 100 nM Ag Bound (RU) in experiment [1] and in experiment [2] was 5 RU throughout.

B2: mAb29261 (antibody, human IgG4 S228P, kappa, V domains shown)
VH: EVQLVESGGNLVQPGGSLRLSCAASGFTFSNYAMSWVRQAPGKGLEWVSGITGNGINTYYSVSVKGRFTISRDNSKNTVFLQMNSLRAEDTAIYYCVKERGHSWFGDWFDPWGQGTLVTVSS
VL: DIQMTQSPSSLSASVGDRVTITCRASQGIRNDLGWYQQKPGKAPKRLIYAASSLQSGVPSRFSGSGSGTEFTLTISSLQPEDFATYYCLQHNSYPWTFGQGTKVEIKR
In the case of B2, the 100 nM Ag Bound (RU) in experiment [3] worked out at 11 RU; in experiment [4], 0 RU.
